The target of the assay is platelet membrane actin (human (endogenous in platelets)) (UniProt P60709). Nature of the assay: SEC. For orientation: In gel filtration, larger molecules generally elute earlier.

Substance “glycoprotein IIb, form in the Triton X-100-insoluble fraction of platelet plasma membranes (natural protein)” came in with a percent of surface GPIIb and III associated with the actin-rich void volume peak greater than 85%.

The values are drawn from publication PMC2113458.
